Assay [1] has as its target T1, native human IGF-IR on human tumor cells (human, UniProt P08069 31-1367).
T1 construct: whole, on cells; also called native IGF-IR; endogenous cellular IGF-IR
Nature of the assay: competition: blocking of IGF-I binding to T47D cells (breast).

Assay [2] concerns the target T2, recombinant mouse IGF-IR (mIGF-IR) (mouse, UniProt Q60751 31-933, limits assumed).
T2 construct: also called mIGF-ER
The assay is described as follows: ELISA on immobilized recombinant mouse IGF-IR. On the technique in general: In an ELISA, binding on a coated surface is turned into a signal by an enzyme label.

Assay [3] addresses T1, native human IGF-IR on human tumor cells. The assay is described as follows: competition: blocking of IGF-I binding to BXPC3 cells (pancreatic).
Assay [4] has the same target. The assay is described as follows: competition: blocking of IGF-I binding to HPAC cells (pancreatic).
For assay [5] the target is unchanged. Nature of the assay: competition: blocking of IGF-I binding to MCF7 cells (breast). The method, then:
(§1) The anti-IGF-IR antibodies were tested for blocking of radiolabeled ligand binding to native IGF-IR on human tumor cells (FIG. 1C). Assay conditions were performed according to Arteaga and Osborne (Cancer Res. 49:6237-41 (1989)), with minor modifications. MCF7 human breast cancer cells were seeded into 24 well dishes, and cultured overnight. Sub-confluent monolayers were washed 2-3 times in binding buffer (Iscove's Medium/0.1% BSA) and antibody added in binding buffer. […] The wells were then washed three times with ice-cold PBS/0.1% BSA. Monolayers were then lysed with 200 μl 0.5N NaOH and counted in a gamma counter.

Assay [6] has the same target. The assay is described as follows: competition: blocking of IGF-I binding to HT-29 cells (colorectal).
The target is the same in assay [7]. The assay is described as follows: competition: blocking of 125I-IGF-I binding to IGF-IR on MCF7 cells. As for the experimental part: as §1
Assay [8] shares this target. Nature of the assay: competition: blocking of IGF-I binding to SK-ES1 cells (Ewing sarcoma).
For assay [9] the target is unchanged. The assay is described as follows: competition: blocking of IGF-I binding to 8226 cells (myeloma).
For assay [10] the target is unchanged. The assay is described as follows: competition: blocking of IGF-I binding to OV90 cells (ovarian).

“And” between values parts separate entries of the source, which are not always exact repeats. Equal entries are not always repeated.

T2 sequence (Q60751 31-933 limits assumed): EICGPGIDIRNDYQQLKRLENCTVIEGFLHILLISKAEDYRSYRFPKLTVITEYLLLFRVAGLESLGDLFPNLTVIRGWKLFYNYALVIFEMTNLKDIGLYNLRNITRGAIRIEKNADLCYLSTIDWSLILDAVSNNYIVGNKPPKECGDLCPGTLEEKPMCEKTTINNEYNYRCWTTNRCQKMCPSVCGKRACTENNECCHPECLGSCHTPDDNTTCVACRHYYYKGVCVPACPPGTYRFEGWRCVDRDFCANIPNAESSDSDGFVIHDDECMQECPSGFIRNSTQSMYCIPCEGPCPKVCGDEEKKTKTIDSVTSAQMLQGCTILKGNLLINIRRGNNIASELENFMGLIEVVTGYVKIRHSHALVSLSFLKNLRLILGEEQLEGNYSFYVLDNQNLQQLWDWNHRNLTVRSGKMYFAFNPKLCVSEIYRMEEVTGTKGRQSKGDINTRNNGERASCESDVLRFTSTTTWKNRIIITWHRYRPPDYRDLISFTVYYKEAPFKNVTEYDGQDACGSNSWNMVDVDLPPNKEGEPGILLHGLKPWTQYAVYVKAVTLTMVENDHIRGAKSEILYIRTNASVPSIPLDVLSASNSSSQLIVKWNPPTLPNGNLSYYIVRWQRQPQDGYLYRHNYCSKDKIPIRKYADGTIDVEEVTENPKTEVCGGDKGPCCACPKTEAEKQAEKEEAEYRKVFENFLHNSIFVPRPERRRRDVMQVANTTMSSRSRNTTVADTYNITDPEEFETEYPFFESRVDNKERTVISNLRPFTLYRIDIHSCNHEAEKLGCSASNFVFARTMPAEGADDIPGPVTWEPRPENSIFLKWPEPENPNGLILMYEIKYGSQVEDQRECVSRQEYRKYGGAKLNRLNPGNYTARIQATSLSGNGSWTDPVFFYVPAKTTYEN

B1: antibody A12 (fully human IgG1 anti-IGF-IR antibody) (antibody, V domains shown)
VH: EVQLVQSGAEVKKPGSSVKVSCKASGGTFSSYAISWVRQAPGQGLEWMGGIIPIFGTANYAQKFQGRVTITADKSTSTAYMELSSLRSEDTAVYYCARAPLRFLEWSTQDHYYYYYMDVWGKGTTVTVSS
VL: SSELTQDPAVSVALGQTVRITCQGDSLRSYYATWYQQKPGQAPILVIYGENKRPSGIPDRFSGSSSGNTASLTITGAQAEDEADYYCKSRDGSGQHLVFGGGTKLTVLG
notes: also called A12 IgG
As a reminder, the IC50 is the point on the concentration scale where inhibition reaches its midpoint. Higher therefore signals weaker potency in that assay. The term EC50 denotes the concentration giving half of the maximal effect. Turning to B1, the IC50 was 6 nM in [1]; 20 nM in assay [3]; 10 nM in assay [4]; 3 nM in assay [5]; 10 nM in assay [6]; 0.45 µg/mL in [7]. Further, the figures for the IC50 in assay [8], in [9] and in assay [10] were 2 nM, 20 nM and 6 nM, respectively. In [2], the EC50 lay in the range of 0.3 to 0.5 nM.

B2: antibody 2F8 (fully human IgG1 anti-IGF-IR antibody) (antibody, V domains shown)
VH: EVQLVQSGAEVKKPGSSVKVSCKASGGTFSSYAISWVRQAPGQGLEWMGGIIPIFGTANYAQKFQGRVTITADKSTSTAYMELSSLRSEDTAVYYCARAPLRFLEWSTQDHYYYYYMDVWGKGTTVTVSS
VL: SSELTQDPAVSVALGQTVRITCQGDSLRSYYASWYQQKPGQAPVLVIYGKNNRPSGIPDRFSGSSSGNTASLTITGAQAEDEADYYCNSRDNSDNRLIFGGGTKLTVLS
notes: also called 2F8 IgG
As to B2, the IC50 in [7] was 30 nM and 4.5 µg/mL.

Source of the values: patent US20100028342A1 (published 2010).
